T1: Ax1 protein, extracellular domain (human, UniProt P30530 26-451)
T1 construct: extracellular domain; also called Axl; Ark
T1 sequence (looked up): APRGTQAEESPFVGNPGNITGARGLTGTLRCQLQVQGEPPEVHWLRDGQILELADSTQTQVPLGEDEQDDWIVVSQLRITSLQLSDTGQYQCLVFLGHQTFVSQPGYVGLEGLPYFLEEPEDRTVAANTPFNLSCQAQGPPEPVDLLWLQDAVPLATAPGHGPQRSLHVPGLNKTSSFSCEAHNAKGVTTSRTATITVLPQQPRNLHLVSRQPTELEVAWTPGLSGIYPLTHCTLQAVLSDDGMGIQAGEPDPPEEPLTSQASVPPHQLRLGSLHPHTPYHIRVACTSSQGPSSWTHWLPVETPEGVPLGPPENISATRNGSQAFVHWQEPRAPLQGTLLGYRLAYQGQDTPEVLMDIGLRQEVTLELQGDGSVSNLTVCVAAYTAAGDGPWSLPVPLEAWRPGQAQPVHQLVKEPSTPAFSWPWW


Tests used:
[1] = molecular target: T1, Ax1 protein, extracellular domain; assay: ELISA, mutant diluted 1:9
From the text: (§1) The DNA encoding the wild-type antibody was evolved to generate a mutant antibody library using Comprehensive Positional Evolution (CPE), which each position in the template antibody is randomized one at a time. Each mutant antibody in the library has only one single point mutation. The mutant antibodies in the library were generated by simultaneously screening for selective binding affinity to Ax1 at pH 6.0 over pH 7.4 by ELISA. Two mutant antibody dilutions were used: 1:3 and 1:9 dilutions.

[2] = molecular target: T1, Ax1 protein, extracellular domain; assay: ELISA, mutant diluted 1:3
From the text: as §1

| Affinity ELISA CPE mutant ratio (1:9, pH 6.0/7.4) [1] | Affinity ELISA CPE mutant ratio (1:3, pH 6.0/7.4) [2] | Binder |
| --- | --- | --- |
| 4.58 | 3.86 | LC-F092C (antibody, V domains shown, CPE single point mutant) VH: EVQLVQSGAEVKKPGATVKISCKVSGYSFTGHTMNWIRQPPGKGLEWIGLIKPSNGGTSYNQKFKGRVTISADKSISTAYLQWSSLKASDTAMYYCAHGHYESYFAMDYWGQGTLVTVSS VL: DIQMTQSPSSLSASVGDRVTITCKASQDVSSAVAWYQQKPGQAPRLLIYWASTRHTGVPSRFSGSGSGTEFTLTISSLQPDDFATYYCQEHCSTPLTFGQGTKVEIK |
| 3.7 | 3.78 | LC-H091T (antibody, V domains shown, CPE single point mutant) VH: EVQLVQSGAEVKKPGATVKISCKVSGYSFTGHTMNWIRQPPGKGLEWIGLIKPSNGGTSYNQKFKGRVTISADKSISTAYLQWSSLKASDTAMYYCAHGHYESYFAMDYWGQGTLVTVSS VL: DIQMTQSPSSLSASVGDRVTITCKASQDVSSAVAWYQQKPGQAPRLLIYWASTRHTGVPSRFSGSGSGTEFTLTISSLQPDDFATYYCQETFSTPLTFGQGTKVEIK |
| 5.13 | 3.93 | LC-H091Y (antibody, V domains shown, CPE single point mutant) VH: EVQLVQSGAEVKKPGATVKISCKVSGYSFTGHTMNWIRQPPGKGLEWIGLIKPSNGGTSYNQKFKGRVTISADKSISTAYLQWSSLKASDTAMYYCAHGHYESYFAMDYWGQGTLVTVSS VL: DIQMTQSPSSLSASVGDRVTITCKASQDVSSAVAWYQQKPGQAPRLLIYWASTRHTGVPSRFSGSGSGTEFTLTISSLQPDDFATYYCQEYFSTPLTFGQGTKVEIK |
| 1.17 | 4.13 | LC-H091V (antibody, V domains shown, CPE single point mutant) VH: EVQLVQSGAEVKKPGATVKISCKVSGYSFTGHTMNWIRQPPGKGLEWIGLIKPSNGGTSYNQKFKGRVTISADKSISTAYLQWSSLKASDTAMYYCAHGHYESYFAMDYWGQGTLVTVSS VL: DIQMTQSPSSLSASVGDRVTITCKASQDVSSAVAWYQQKPGQAPRLLIYWASTRHTGVPSRFSGSGSGTEFTLTISSLQPDDFATYYCQEVFSTPLTFGQGTKVEIK |
| 2 | 1.93 | LC-F092N (antibody, V domains shown, CPE single point mutant) VH: EVQLVQSGAEVKKPGATVKISCKVSGYSFTGHTMNWIRQPPGKGLEWIGLIKPSNGGTSYNQKFKGRVTISADKSISTAYLQWSSLKASDTAMYYCAHGHYESYFAMDYWGQGTLVTVSS VL: DIQMTQSPSSLSASVGDRVTITCKASQDVSSAVAWYQQKPGQAPRLLIYWASTRHTGVPSRFSGSGSGTEFTLTISSLQPDDFATYYCQEHNSTPLTFGQGTKVEIK |
| 2.94 | 2.97 | LC-F092D (antibody, V domains shown, CPE single point mutant) VH: EVQLVQSGAEVKKPGATVKISCKVSGYSFTGHTMNWIRQPPGKGLEWIGLIKPSNGGTSYNQKFKGRVTISADKSISTAYLQWSSLKASDTAMYYCAHGHYESYFAMDYWGQGTLVTVSS VL: DIQMTQSPSSLSASVGDRVTITCKASQDVSSAVAWYQQKPGQAPRLLIYWASTRHTGVPSRFSGSGSGTEFTLTISSLQPDDFATYYCQEHDSTPLTFGQGTKVEIK |
| 3.02 | 4 | LC-H091C (antibody, V domains shown, CPE single point mutant) VH: EVQLVQSGAEVKKPGATVKISCKVSGYSFTGHTMNWIRQPPGKGLEWIGLIKPSNGGTSYNQKFKGRVTISADKSISTAYLQWSSLKASDTAMYYCAHGHYESYFAMDYWGQGTLVTVSS VL: DIQMTQSPSSLSASVGDRVTITCKASQDVSSAVAWYQQKPGQAPRLLIYWASTRHTGVPSRFSGSGSGTEFTLTISSLQPDDFATYYCQECFSTPLTFGQGTKVEIK |
| 4.76 | 3.69 | LC-F092G (antibody, V domains shown, CPE single point mutant) VH: EVQLVQSGAEVKKPGATVKISCKVSGYSFTGHTMNWIRQPPGKGLEWIGLIKPSNGGTSYNQKFKGRVTISADKSISTAYLQWSSLKASDTAMYYCAHGHYESYFAMDYWGQGTLVTVSS VL: DIQMTQSPSSLSASVGDRVTITCKASQDVSSAVAWYQQKPGQAPRLLIYWASTRHTGVPSRFSGSGSGTEFTLTISSLQPDDFATYYCQEHGSTPLTFGQGTKVEIK |
| 2 | 1.76 | LC-F092E (antibody, V domains shown, CPE single point mutant) VH: EVQLVQSGAEVKKPGATVKISCKVSGYSFTGHTMNWIRQPPGKGLEWIGLIKPSNGGTSYNQKFKGRVTISADKSISTAYLQWSSLKASDTAMYYCAHGHYESYFAMDYWGQGTLVTVSS VL: DIQMTQSPSSLSASVGDRVTITCKASQDVSSAVAWYQQKPGQAPRLLIYWASTRHTGVPSRFSGSGSGTEFTLTISSLQPDDFATYYCQEHESTPLTFGQGTKVEIK |
| 2.99 | 2.52 | LC-P095A (antibody, V domains shown, CPE single point mutant) VH: EVQLVQSGAEVKKPGATVKISCKVSGYSFTGHTMNWIRQPPGKGLEWIGLIKPSNGGTSYNQKFKGRVTISADKSISTAYLQWSSLKASDTAMYYCAHGHYESYFAMDYWGQGTLVTVSS VL: DIQMTQSPSSLSASVGDRVTITCKASQDVSSAVAWYQQKPGQAPRLLIYWASTRHTGVPSRFSGSGSGTEFTLTISSLQPDDFATYYCQEHFSTALTFGQGTKVEIK |
| 2.94 | 3.18 | LC-F092S (antibody, V domains shown, CPE single point mutant) VH: EVQLVQSGAEVKKPGATVKISCKVSGYSFTGHTMNWIRQPPGKGLEWIGLIKPSNGGTSYNQKFKGRVTISADKSISTAYLQWSSLKASDTAMYYCAHGHYESYFAMDYWGQGTLVTVSS VL: DIQMTQSPSSLSASVGDRVTITCKASQDVSSAVAWYQQKPGQAPRLLIYWASTRHTGVPSRFSGSGSGTEFTLTISSLQPDDFATYYCQEHSSTPLTFGQGTKVEIK |
| 2.63 | 2.35 | LC-P095C (antibody, V domains shown, CPE single point mutant) VH: EVQLVQSGAEVKKPGATVKISCKVSGYSFTGHTMNWIRQPPGKGLEWIGLIKPSNGGTSYNQKFKGRVTISADKSISTAYLQWSSLKASDTAMYYCAHGHYESYFAMDYWGQGTLVTVSS VL: DIQMTQSPSSLSASVGDRVTITCKASQDVSSAVAWYQQKPGQAPRLLIYWASTRHTGVPSRFSGSGSGTEFTLTISSLQPDDFATYYCQEHFSTCLTFGQGTKVEIK |
| 1.34 | 1.76 | LC-H091S (antibody, V domains shown, CPE single point mutant) VH: EVQLVQSGAEVKKPGATVKISCKVSGYSFTGHTMNWIRQPPGKGLEWIGLIKPSNGGTSYNQKFKGRVTISADKSISTAYLQWSSLKASDTAMYYCAHGHYESYFAMDYWGQGTLVTVSS VL: DIQMTQSPSSLSASVGDRVTITCKASQDVSSAVAWYQQKPGQAPRLLIYWASTRHTGVPSRFSGSGSGTEFTLTISSLQPDDFATYYCQESFSTPLTFGQGTKVEIK |
| 2.44 | 2.17 | LC-H091L (antibody, V domains shown, CPE single point mutant) VH: EVQLVQSGAEVKKPGATVKISCKVSGYSFTGHTMNWIRQPPGKGLEWIGLIKPSNGGTSYNQKFKGRVTISADKSISTAYLQWSSLKASDTAMYYCAHGHYESYFAMDYWGQGTLVTVSS VL: DIQMTQSPSSLSASVGDRVTITCKASQDVSSAVAWYQQKPGQAPRLLIYWASTRHTGVPSRFSGSGSGTEFTLTISSLQPDDFATYYCQELFSTPLTFGQGTKVEIK |

— patent US20240199746A1 (published 2024)
